Measurements: patent US6790633

Target: T1, rat brain farnesyl:protein transferase (rat, UniProt Q04631 2-377; Q02293 1-437)
Experiment: cell-based or functional assay

| Binder | Concentration For 50% Inhibition |
| --- | --- |
| CIIC | 0.35 µM |
| CVLM | 0.15 µM |
| CVIS | 1 µM |
| CCVQ | 0.35 µM |
| CLLL | 22 µM |
| CVIL | 11 µM |
| CTVA | 30 µM |
| CVIA | 5 µM |
| CAIL | 100 µM |
| CAIM | 0.15 µM |
| CIIM | 0.15 µM |
| CSIM | 0.2 µM |
| CVLS | 3 µM |
| CIIS | 0.35 µM |
| CVIM | 0.15 µM |
| CLIL | 17 µM |
| CIKS | > 100 µM |
| CVVM | 0.15 µM |

Target: T1, rat brain farnesyl:protein transferase
Experiment: cell-based or functional assay
Remark: another data set of the same source

| Binder | concentration giving 50% inhibition | fold increase in affinity for the enzyme against CVIM | fold decrease in affinity for the enzyme against CVIM, as estimated by the concentration required for 50% inhibition |
| --- | --- | --- | --- |
| CGIM | 4 µM | – | – |
| CVIL | 12 µM | – | – |
| CVFM | 0.025 µM | 6 fold | – |
| CVAM | – | – | > 30 fold |
| CVPM | 20 µM | – | – |
| CVIA | – | – | > 30 fold |
| CPIM | 8 µM | – | – |
| CKIM | 0.7 µM | – | – |
| CVIF | 0.5 µM | – | – |
| CEIM | 1.5 µM | – | – |
